Entries after “also recorded” stand apart in the source; their conditions may differ.
Assays:
[1] = tested on: total transcripts of P. aeruginosa; experiment: Transcriptome profile comparison of AS1974-transformed and control strains (off-target effect); type: cell-based; settings: AS1974-transformed vs control strains
[2] = tested on: resistance strains of P. aeruginosa (R3); experiment: MIC measurement (microbroth dilution) of resistance strain overexpressing sRNA; type: cell-based; settings: transformed R3 strain
From the text: Different classes of antibiotics including aminoglycoside, cephalosporin, beta-lactam, extended-spectrum penicillin beta-lactam, fluoroquinolone were used. Antibiotics susceptibility and resistance strains are highlighted. R3-AS1974, R3-AS2779 and R3-IGR2780 represent R3 strains transformed with the corresponding sRNA while R3-AS1974-Reverse represents R3 strains transformed the sRNA which sequence was reverse and complementary to AS1974 (negative control). R3-empty vector was used as vector control. The strain ATCC27853 was used for quality control.
To find out if the sRNAs directly play a role in the intrinsic drug resistance of bacteria, each of the sRNAs was overexpressed in the resistance strains of P. aeruginosa, and MIC measurements were performed. […]
The MICs of 11 antibiotics, including penicillin G, cefotaxime, chloramphenicol, tetracycline, erythromycin, lincomycin, ciprofloxacin (Sigma, St. Louis, Mo., USA), levofloxacin (Daiichi Sankyo, Tokyo, Japan), gatifloxacin (Bristol-Myers Squibb, Moreton, UK), moxifloxacin (Bayer Healthcare Pharmaceuticals, Berlin, Germany), and linezolid (Pfizer, NJ, USA), were determined using the microbroth dilution method, according to the Clinical and Laboratory Standards Institute (CLSI). […]

[3] = tested on: AS1974 target genes (mexD, chtA, prc, major facilitator superfamily, pilD, ndvB); experiment: Real-time qPCR of AS1974 target genes in AS1974-overexpressing resistance strain; type: cell-based, P. aeruginosa; settings: R3-AS1974 vs R3-EV (empty vector)
Method: One of the major functions of sRNAs is to suppress the target gene expression under particular conditions or in response to external stimuli. To find out the regulatory roles of AS1974 sRNAs in various drug resistance pathways, the inventors sequenced the transcriptomes of six strains, and they used newly developed program to correlate sRNA repertoires with transcriptomes. […] To validate the transcriptome result, real-time qPCR experiments were performed to measure and compare the transcript levels of these genes in both drug-susceptible and drug-resistant strains.
To further investigate if these drug-resistant genes were directly controlled by this sRNA, AS1974 was overexpressed in the resistance strain and their transcript levels were measured by qPCR. Empty vector was used as a negative control. […]
Six P. aeruginosa strains, S1, S2, S3, R1, R2, and R3, were grown at 37° C. overnight in nutrient broth with shaking at 250 rpm and harvested at stationary phase (OD600=1.5-1.7). […] Melting curves were determined by an auto-dissociation program. […] The results were expressed as the means of at least 3 independent experiments. Data are presented as mean±SD, and comparisons were analyzed using unpaired t test (two tailed: *p<0.05, **p<0.01, and ***p<0.001).

B1: AS1974: sRNA of P. aeruginosa, SEQ ID NO: 2, located at the antisense region of mexR (nucleic acid, listed as Pseudomonas aeruginosa)
chain: GAATGTTCTTAAATATCCTCAAGCGGTTGCGCGGCCAGGCACTGGTCGAGGAGATGCACCAGGGTGGCCTGTTCCACCGGGGTGAGCGGGGCAAACAACTCGTCATGCACGCGTGACATGATGGCCTC
[1]
  total transcripts affected (off-target effect): less than 1%
[2]; chloramphenicol
  resistance of the AS1974-overexpressed strain to chloramphenicol: still showed resistance
[2]; aminoglycoside, cephalosporin, meropenem, ertapenem, empty vector control
  effect of sRNA overexpression on MIC / antibiotic susceptibility of the resistance strain: hypersusceptibility; also recorded: transformed the bacteria from resistant strains to drug-sensitive strains
[3]
  target gene expression upon overexpression of sRNA: downregulated
